T1: CD30-His (Sino Biological, 10777-H08H) (UniProt P28908 19-379)
T1 construct: Bought protein; also called CD30-His protein; CD30 protein; not shown: His tag
T1 sequence (looked up): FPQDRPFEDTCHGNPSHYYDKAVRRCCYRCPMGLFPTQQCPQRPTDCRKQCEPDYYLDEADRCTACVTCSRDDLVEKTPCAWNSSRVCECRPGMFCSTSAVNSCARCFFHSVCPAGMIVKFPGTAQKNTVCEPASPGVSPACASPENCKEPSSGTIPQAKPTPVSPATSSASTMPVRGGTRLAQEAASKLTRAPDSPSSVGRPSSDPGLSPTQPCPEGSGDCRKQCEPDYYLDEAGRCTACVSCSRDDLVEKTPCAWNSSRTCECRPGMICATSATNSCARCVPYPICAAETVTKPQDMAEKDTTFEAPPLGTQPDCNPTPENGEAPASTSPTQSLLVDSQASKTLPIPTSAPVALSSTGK

T2: CD30 expressed on cells (CD30-293T, SUDHL1, HDLM-2) (UniProt P28908 19-595)
T2 sequence (looked up): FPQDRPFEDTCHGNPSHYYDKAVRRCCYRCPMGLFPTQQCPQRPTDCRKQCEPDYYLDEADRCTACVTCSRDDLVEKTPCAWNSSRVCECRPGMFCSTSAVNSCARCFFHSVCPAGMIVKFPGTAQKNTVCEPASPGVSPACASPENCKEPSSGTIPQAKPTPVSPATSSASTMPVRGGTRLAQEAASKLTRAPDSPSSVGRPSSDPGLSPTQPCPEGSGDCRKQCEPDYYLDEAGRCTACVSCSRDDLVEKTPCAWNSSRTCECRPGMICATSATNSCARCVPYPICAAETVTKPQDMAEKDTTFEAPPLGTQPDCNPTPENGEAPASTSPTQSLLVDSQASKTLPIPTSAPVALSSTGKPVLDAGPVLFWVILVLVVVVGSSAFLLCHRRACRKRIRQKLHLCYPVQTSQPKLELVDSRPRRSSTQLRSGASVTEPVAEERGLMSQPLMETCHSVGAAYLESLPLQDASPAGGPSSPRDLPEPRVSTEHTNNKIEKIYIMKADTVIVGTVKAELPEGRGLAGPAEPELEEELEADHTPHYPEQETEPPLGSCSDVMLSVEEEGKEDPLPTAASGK


Experiments:
[1] = biological target: T1, CD30-His (Sino Biological, 10777-H08H); assay: ELISA, scFv-Fc titrated on plate coated with 1 µg/mL CD30-His
Experimental: For ELISA, the eleven purified anti-CD30 scFv-Fc forms and the positive control HRS scFV-Fc were 1/3 diluted for 10 points starting from 10 μg/mL in a plate coated with 1 μg/mL CD30-His protein. After treatment with a secondary antibody (anti-hIgG-Fc-HRP (Invitrogen, H10007)), a color was developed with TMB. OD₄₅₀ values were read using an ELISA reader, and EC₅₀ values were measured by means of Graph prism (FIG. 1, Table 3).

[2] = biological target: T2, CD30 expressed on cells (CD30-293T, …); assay: cell-based or functional assay
[3] = biological target: T2, CD30 expressed on cells (CD30-293T, …); assay: cell-based or functional assay; remark: listed apart in the source
[4] = biological target: T2, CD30 expressed on cells (CD30-293T, …); assay: cell-based or functional assay; remark: listed apart in the source

Binder | EC50 [1] [µg/mL] | further results
T1-36 anti-CD30 scFv-Fc (Fc fusion, scFv-Fc-conjugated form (Zb-Fc); also called Zb-Fc form; not shown: Fc of the scFv-Fc (Zb-Fc) form and its junction) scFv: EVQLLESGGGLVQPGGSLRLSCAASGFTFSYYYMSWVRQAPGKGLEWVSYIGGGGSGTYYADSVKGRFTISRDNSKNTLYLQMNSLRAEDTAVYYCARGPYYGYFDYWGQGTLVTVSSGGGGSGGGGSGGGGSQSVLTQPPSASGTPGQRVTISCSGSSSNIGSNYVYWYQQLPGTAPKLLIYRNNQRPSGVPDRFSGSKSGTSASLAISGLRSEDEADYYCAAYPSYDSYVFGGGTKLTVLG | 0.021 | 
T1-23 anti-CD30 scFv-Fc (Fc fusion, scFv-Fc-conjugated form (Zb-Fc); also called Zb-Fc form; not shown: Fc of the scFv-Fc (Zb-Fc) form and its junction) scFv: EVQLLESGGGLVQPGGSLRLSCAASGFTFSSYSMSWVRQAPGKGLEWVSGIGYPYYTYYADSVKGRFTISRDNSKNTLYLQMNSLRAEDTAVYYCARYYYDYGFDYWGQGTLVTVSSGGGGSGGGGSGGGGSQSVLTQPPSASGTPGQRVTISCSGSSSNIGSNYVYWYQQLPGTAPKLLIYRNNQRPSGVPDRFSGSKSGTSASLAISGLRSEDEADYYCAAYRSYDYVFGGGTKLTVLG | 0.023 | 
T1-9 anti-CD30 scFv-Fc (Fc fusion, scFv-Fc-conjugated form (Zb-Fc); also called Zb-Fc form; not shown: Fc of the scFv-Fc (Zb-Fc) form and its junction) scFv: EVQLLESGGGLVQPGGSLRLSCAASGFTFSYYGMSWVRQAPGKGLEWVSGIGSYSSYTYYADSVKGRFTISRDNSKNTLYLQMNSLRAEDTAVYYCARYASSPDAYFDYWGQGTLVTVSSGGGGSGGGGSGGGGSQSVLTQPPSASGTPGQRVTISCSGSSSNIGSNYVYWYQQLPGTAPKLLIYRNNQRPSGVPGRFSGSKSGTSASLAISGLRSEDEADYYCAAYYNYNYVFGGGTKLTVLG | 0.026 | 
T1-2 anti-CD30 scFv-Fc (Fc fusion, Cloned in an scFv-Fc-conjugated form (Zb-Fc); detected with anti-human IgG Fc; also called Zb-Fc form; not shown: Fc of the scFv-Fc (Zb-Fc) form and any junction to it) scFv: EVQLLESGGGLVQPGGSLRLSCAASGFTFSGYGMSWVRQAPGKGLEWVSYISGYSYYTYYADSVKGRFTFSRDNSKNTLYLQMNSLRAEDTAVYYCARYDGNGFDYWGQGTLVTVSSGGGGSGGGGSGGGGSQSVLTQPPSASGTPGQRVTISCSGSSSNIGSNYVYWYQQLPGTAPKLLIYRNNQRPSGVPDRFSGSKSGTSASLAISGLRSEDEADYYCAADSSDDSYVFGGGTKLTVLG | 0.06 | 
T1-10 anti-CD30 scFv-Fc (Fc fusion, scFv-Fc-conjugated form (Zb-Fc); also called Zb-Fc form; not shown: Fc of the scFv-Fc (Zb-Fc) form and its junction) scFv: EVQLLESGGGLVQPGGSLRLSCAASGFTFSSYGMSWVRQAPGKGLEWVSYISGGSYYTYYADSVKGRFTISRDNSKNTLYLQMNSLRAEDTAVYYCARYGYGYYDGSFDYWGQGTLVTVSSGGGGSGGGGSGGGGSQSVLTQPPSASGTPGQRVTISCSGSSSNIGSNYVYWYQQLPGTAPKLLIYRNNQRPSGVPDRFSGSKSGTSASLAISGLRSEDEADYYCAADGPYNYVFGGGTKLTVLG | 0.031 | 
scFv CAR of anti CD30 antibody (T1-159), on CAR-T cells (other) EVQLLESGGGLVQPGGSLRLSCAASGFTFSSYGMSWVRQAPGKGLEWVSSIYYYSGGTYYADSVKGRFTISRDNSKNTLYLQMNSLRAEDTAVYYCARNDYRNNSDFDYWGQGTLVTVSSGGGGSGGGGSGGGGSQSVLTQPPSASGTPGQRVTISCSGSSSNIGSNYVYWYQQLPGTAPKLLIYRNNQRPSGVPDRFSGSKSGTSASLAISGLRSEDEADYYCAAYYPYYYVFGGGTKLTVLGGQAGQTTTPAPRPPTPAPTIASQPLSLRPEACRPAAGGAVHTRGLDFACDIYIWAPLAGTCGVLLLSLVITLYCKRGRKKLLYIFKQPFMRPVQTTQEEDGCSCRFPEEEEGGCELRVKFSRSADAPAYQQGQNQLYNELNLGRREEYDVLDKRRGRDPEMGGKPRRKNPQEGLYNELQKDKMAEAYSEIGMKGERRRGKGHDGLYQGLSTATKDTYDALHMQALPPR |  | tumor death rate on HDLM-2 cells, ratio of CAR-T to the target 0.25 [2]: ≥ 50%; Cytotoxicity (%) against CD30-expressing cell (SUDHL1), CAR-T/Target 0.11 [3]: 24%; Cytotoxicity (%) against CD30-expressing cell (SUDHL1), CAR-T/Target 0.33 [3]: 58%; Cytotoxicity (%) against CD30-expressing cell (SUDHL1), CAR-T/Target 1 [3]: 88%; Cytotoxicity (%) against CD30-expressing cell (CD30-293T), CAR-T/Target 0.11 [4]: -4%; Cytotoxicity (%) against CD30-expressing cell (CD30-293T), CAR-T/Target 0.33 [4]: 60%; Cytotoxicity (%) against CD30-expressing cell (CD30-293T), CAR-T/Target 1 [4]: 72%
T1-8 anti-CD30 scFv-Fc (Fc fusion, scFv-Fc-conjugated form (Zb-Fc); also called Zb-Fc form; not shown: Human Fc of the scFv-Fc (Zb-Fc) form and its junction to the scFv) scFv: EVQLLESGGGLVQPGGSLRLSCAASGFTFSSYMSWVRQAPGKGLEWVSSIGSGYYSTYYADSVKGRFTISRDNSKNTLYLQMNSLRAEDTAVYYCARDYYGGFDYWGQGTLVTVSSGGGGSGGGGSGGGGSQSVLTQPPSASGTPGQRVTISCSGSSSNIGSNYVYWYQQLPGTAPKLLIYRNNQRPSGVPDRFSGSKSGTSASLAISGLRSEDEADYYCAAYDSYSYVFGGGTKLTVLG | 0.051 | 
T1-7 anti-CD30 scFv-Fc (Fc fusion, scFv-Fc-conjugated form (Zb-Fc); also called Zb-Fc form; not shown: Fc of the scFv-Fc (Zb-Fc) form and any junction to it) scFv: EVQLLESGGGLVQPGGSLRLSCAASGFTFSGYGMSWVRQAPGKGLEWVSYISSGSYYTYYADSVKGRFTISRDNSKNTLYLQMNSLRAEDTAVYYCARYRGDNDYYGYFDYWGQGTLVTVSSGGGGSGGGGSGGGGSQSVLTQPPSASGTPGQRVTISCSCSSSNIGNNAVSWYQQLPGTAPKLLIYRNNQRPSGVPDRFSGSKSGTSASLAISGLRSEDEADYYCAADYGSDYVFGGGTKLTVLG | 0.048 | 

More lines, main results first:

EC50 [1] [µg/mL] | Binder | further results
0.026 | T1-141 anti-CD30 scFv-Fc (Fc fusion, scFv-Fc-conjugated form (Zb-Fc); also called Zb-Fc form; not shown: Fc of the scFv-Fc (Zb-Fc) form and its junction) scFv: EVQLLESGGGLVQPGGSLRLSCAASGFTFSYYDMSWVRQAPGKGLEWVSGIYGSGSTYYADSVKGRFTISRDNSKNTLYLQMNSLRAEDTAVYYCARYSYYDSYSDYFDYWGQGTLVTVSSGGGGSGGGGSGGGGSQSVLTQPPSASGTPGQRVTISCSGSSSNIGSNYVYWYQQLPGTAPKLLIYRNNQRPSGVPDRFSGSKSGTSASLAISGLRSEDEADYYCAAYSYGYYVFGGGTKLTVLG | 
0.26 | T1-159 anti-CD30 scFv-Fc (Fc fusion, scFv-Fc-conjugated form (Zb-Fc); also called Zb-Fc form; not shown: Fc of the scFv-Fc (Zb-Fc) form and any junction to it) scFv: EVQLLESGGGLVQPGGSLRLSCAASGFTFSSYGMSWVRQAPGKGLEWVSSIYYYSGGTYYADSVKGRFTISRDNSKNTLYLQMNSLRAEDTAVYYCARNDYRNNSDFDYWGQGTLVTVSSGGGGSGGGGSGGGGSQSVLTQPPSASGTPGQRVTISCSGSSSNIGSNYVYWYQQLPGTAPKLLIYRNNQRPSGVPDRFSGSKSGTSASLAISGLRSEDEADYYCAAYYPYYYVFGGGTKLTVLG | 
0.157 | T1-117 anti-CD30 scFv-Fc (Fc fusion, scFv-Fc-conjugated form (Zb-Fc); also called Zb-Fc form; not shown: Fc of the scFv-Fc (Zb-Fc) form and its junction) scFv: EVQLLESGGGLVQPGGSLRLSCAASGFTFSYYGMSWVRQAPGKGLEWVSYISGYSSYTYYADSVKGRFTISRDNSKNTLYLQMNSLRAEDTAVYYCARYNDSGSFDYWGQGTLVTVSSGGGGSGGGGSGGGGSQSVLTQPPSASGTPGQRVTISCSGSSSNIGSNYVYWYQQLPGTAPKLLIYRNNQRPSGVPDRFSGSKSGTSASLAISGLRSEDEADYYCAADAGNRYVFGGGTKLTVLG | 
0.038 | T2-2 anti-CD30 scFv-Fc (Fc fusion, scFv-Fc-conjugated form (Zb-Fc); also called Zb-Fc form; not shown: Fc of the scFv-Fc form (Zb-Fc)) EVQLLESGGGLVQPGGSLRLSCAASGFTFSSYHMSWVRQAPGKGLEWVSGIGYGHGGTYYADSVKGRFTISRDNSKNTLYLQMNSLRAEDTAVYYCARYDYDYSFDYWGQGTLVTVSSGGGGSGGGGSGGGGSQSVLTQPPSASGTPGQRVTISCSGSSSNIGSNYVYWYQQLPGTAPKLLIYRNNQRPSGVPDRFSGSKSGTSASLAISGLRSEDEADYYCAVSSPYSYVFGGGTKLTVLG | 

— US20240392023A1 (ABCLON, published 2024)
